{"source": "paper PMC7909837", "about": "“Function and Regulation of Chloroplast Peroxiredoxin IIE” (Antioxidants, 2021)", "binders": {"B1": {"name": "Peroxiredoxin IIE (PRX-IIE), wild type, His6-tagged recombinant (enzyme, A. thaliana, UniProt Q949U7 71-234, looked up)", "chain": "ASISVGDKLPDSTLSYLDPSTGDVKTVTVSSLTAGKKTILFAVPGAFTPTCSQKHVPGFVSKAGELRSKGIDVIACISVNDAFVMEAWRKDLGINDEVMLLSDGNGEFTGKLGVELDLRDKPVGLGVRSRRYAILADDGVVKVLNLEEGGAFTNSSAEDMLKAL", "notes": "Peroxiredoxin IIE, A. thaliana, AT3G52960, cloned into pET28a (NdeI/BamHI); also called PRX-IIE WT; WT PRX-IIE; source: E. coli BL21 (DE3)pLysS, purified (Ni-NTA, dialysis)"}}, "target": "T1, 14-3-3 υ protein, recombinant (A. thaliana, UniProt P42645 1-268)", "T1 construct": "14-3-3 υ, A. thaliana, AT5G16050; construct and tags not described", "T1 sequence (looked up)": "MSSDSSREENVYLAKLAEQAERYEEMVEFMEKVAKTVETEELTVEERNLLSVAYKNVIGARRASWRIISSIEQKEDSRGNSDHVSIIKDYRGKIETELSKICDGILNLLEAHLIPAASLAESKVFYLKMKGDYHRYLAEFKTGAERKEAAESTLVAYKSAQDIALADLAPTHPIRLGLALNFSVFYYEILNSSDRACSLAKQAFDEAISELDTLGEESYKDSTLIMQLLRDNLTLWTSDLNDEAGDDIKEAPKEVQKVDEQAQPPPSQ", "assay": "far-Western, overlay or dot blot; dilution series of recombinant 14-3-3 υ spotted on nitrocellulose; incubated with PRX-IIE or its phospho-mimicry variants in TBS with either 1 mM DTT or 100 µM H2O2 overnight at 4 °C; detected with anti-PRX-IIE antibody; spots quantified with ImageJ", "settings": "both partners purified", "data": [{"binder": "B1", "values": [{"measurement": "fold improvement of binding under oxidizing conditions (100 µM H2O2) against the other conditions", "value": 2.5, "unit": "fold"}]}]}
